Assay results from publication doi:10.1101/247882 (bioRxiv, 2018).

Tests used:
[1] = biological target: Truncated Synechocystis FRP spanning amino acids 8-109 (Synechocystis sp. PCC 6803); assay: SEC-MALS + other: SAXS
[2] = biological target: T1, Synechocystis OCP lacking the N-terminal extension, construct OCP_(13-317), holoprotein (Synechocystis sp. PCC 6803, UniProt P74102 13-317); assay: SEC-MALS
T1 sequence: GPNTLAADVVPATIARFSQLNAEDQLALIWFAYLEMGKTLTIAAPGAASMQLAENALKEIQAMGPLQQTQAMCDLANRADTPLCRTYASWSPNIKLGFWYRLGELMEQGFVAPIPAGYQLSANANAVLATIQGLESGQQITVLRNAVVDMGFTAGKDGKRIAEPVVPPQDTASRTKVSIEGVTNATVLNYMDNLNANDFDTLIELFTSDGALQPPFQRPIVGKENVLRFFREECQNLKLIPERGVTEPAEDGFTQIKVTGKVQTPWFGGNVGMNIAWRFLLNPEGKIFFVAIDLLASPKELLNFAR

SAXS = biological target: the molecule itself; assay: SAXS

Sequence of Truncated Synechocystis FRP spanning amino acids 8-109 (domain or fragment) (P74103 whole entry, the tested form may be a part): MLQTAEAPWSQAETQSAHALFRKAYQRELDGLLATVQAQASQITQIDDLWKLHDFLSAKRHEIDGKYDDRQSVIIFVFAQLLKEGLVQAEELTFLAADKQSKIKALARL

Row | Molecule | stoichiometry N [1] | stoichiometry N [2] | stoichiometry N (SAXS)
1 | Truncated Synechocystis FRP spanning amino acids 8-109 (domain or fragment) | 2 | – | –
2 | Arthrospira maxima FRP (natural protein) MSEINWSEQDKNAAVDALHKAYEREVKILIDEVKQKAFNLTEIDEVWKLHDFLSARRHDIDGKYDYRDAASVFVLATLVKQGWLSLEELQVLGQDKLAKISALTRL | – | 1 FRP per OCP | 2
3 | Synechocystis FRP (fluorescence recovery protein), wild-type construct with uncleavable N-terminal His6 tag and linker (natural protein) LQTAEAPWSQAETQSAHALFRKAYQRELDGLLATVQAQASQITQIDDLWKLHDFLSAKRHEIDGKYDDRQSVIIFVFAQLLKEGLVQAEELTFLAADKQSKIKALARL | – | 2 FRP per OCP | –
